# Assay results as given in the RNAGym collection of RNA variant scans (doi:10.7554/elife.90254).
# B1: LINE1-full (parent)
# chain: UACGUAGGUGGUUUUCCCCUGAUAGUGCUAAGGGGGCCUGGAAGUUUGGACUGGGCAGAGCUCAACACAGCGUGGCAAAGUGGCUGUGGCUAGACUGCCUCUCUGGAUUCCUCGUCACUCAGCAGGGCAUCUCUGAGAGAAAUGCC
# Variants of: B1
# Assay: self-cleavage, relative activity (ratio to wild type); higher = more cleavage; in vitro, sequencing; the parent is a self-cleaving ribozyme
row,Variant,self-cleavage
1,U87A U132G,0.1
2,U14A A136C,1.78
3,C38A A64G,0.18
4,U9G U47A,0.99
5,U115A A142U,1.38
6,U100C U143C,1.97
7,C19U A140U,0.82
8,A50U U73C,2.09
9,A31U A77G,1.39
10,U29C U85A,0.12
11,A69C A142G,0.11
12,A57G U85A,0.13
13,U91C C110U,0.66
14,C3U U62G,0.07
15,C68U A142G,0.14
16,A117G U132C,1.8
17,U5A A31G,0.82
18,G32A A77G,1.56
19,U96A C116A,0.21
20,A22U U119C,1.52
21,U45G A67G,0.45
22,U20C A94G,0.39
23,U115C A117G,1.4
24,U73C G97A,0.41

row,Variant,self-cleavage
1,A59C A142G,0.57
2,G8A U104C,1.29
3,G49U U119C,1.2
4,C68U U109A,0.21
5,U26C A94U,0.28
6,U73G U112G,0
7,U26C A142G,1.43
8,A43U A141C,2.43
9,G25U A59G,0.18
10,U100A U102A,0.49
11,U9C U29A,1.1
12,U46C U91A,0.53
13,A24G U52A,0.79
14,C103A U143C,1.1
15,G25A A77G,0.92
16,A31U U52A,1.73
17,U39A A64U,0.47
18,A107G A124G,0.96
19,U39A A77U,1.38
20,C76U U104C,2.05
21,A22G A50G,0.97
22,A79G U85A,0.08
23,U15A A57G,0.68
24,U81A U96A,0.07

row,Variant,self-cleavage
1,U26G A124G,0.69
2,U85C G125C,0.29
3,A57G U115A,0.81
4,U12A U45C,0.82
5,U15A A121G,1.15
6,U104C C116U,1.91
7,U96G U109A,0
8,G49A A129U,1.46
9,A24C U109A,2.55
10,U104C C113U,1.8
11,U1A A78G,0.86
12,A142G C146U,1.49
13,U5C G48A,0.45
14,A78G U81A,0.47
15,U20C G72U,0.9
16,U15C U115A,1.59
17,G25U,1.45
18,A22G U26G,0.75
19,A43G G86A,0.06
20,A136G C145U,1.45
21,U62C U73C,0.07
22,G60A A107G,0.03
23,A43G G75A,1.06
24,A79G C146U,1.3

row,Variant,self-cleavage
1,U73C C131U,1.73
2,A65G A107G,0.03
3,U1C U15A,0.81
4,A129C A138U,0.57
5,G82A G114U,2.07
6,A77C A136G,1.06
7,U12C U39C,1.4
8,A77G G83U,1.28
9,U12G A136U,0.76
10,U15C C17U,1.03
11,G72A A94G,0.33
12,G8A U134C,1.55
13,U39C C71U,0.31
14,A42G U109G,0.66
15,A24U A57C,0
16,A59U A77G,1.01
17,U119A A121U,1.67
18,A69U U87C,0.06
19,U13C U91C,0.99
20,U12C A30U,0.53
21,U9C G89C,0.05
22,G83A U91C,0.24
23,U15A U104C,1.06
24,C56A U73C,0.05

row,Variant,self-cleavage
1,U29A U130C,0.81
2,A77U A117G,1.6
3,G53A G135U,0.82
4,A43U U62C,0.06
5,A141C,1.04
6,G53C A65U,0.2
7,U29C A59G,0.16
8,U47G C113A,1.6
9,A2C A31G,1.34
10,G60U U104C,0.04
11,G10A G32A,0.73
12,A117U,1.46
13,G55A A140G,0.17
14,U13G U85A,0.06
15,U104A C113U,0.51
16,G72A A140G,1.16
17,A2U A129U,0.75
18,U47A A124C,1.18
19,U130C U143C,1.53
20,A6U C133A,0.49
21,U91G,0.04
22,U1C A78C,1.46
23,U23C A121C,1.9
24,A67G U134C,0.56

row,Variant,self-cleavage
1,U39C A69C,0.11
2,G35A U143C,1.04
3,A2G U96C,0.22
4,U5A U26A,1.37
5,U26A U132A,1.34
6,U39G U81A,1.62
7,U20A C71U,1.22
8,A50G C68U,0.1
9,C16U U39C,1.35
10,U132C A140G,1.65
11,A43G C111U,0.93
12,A69U U115C,0.07
13,U15A A77G,0.89
14,C17A U134C,1.11
15,A78G A129C,1.96
16,G34C C37U,0.84
17,G55C A141G,0.55
18,A64U G74A,0.3
19,C37G A77U,1.06
20,G139U C145G,2.02
21,G58A U134C,0.01
22,G8U C56U,0.28
23,U39C A77G,1.93
24,A59G U73A,0.08

row,Variant,self-cleavage
1,C71U U85A,0.03
2,C101U A136G,1.8
3,U29A G89U,0.04
4,A43U C103U,1.09
5,U26C C76U,1.87
6,U52C A69U,0.1
7,A129C A140C,1.29
8,U52C U62C,0.03
9,A57G G105A,0.48
10,U1G U100C,1.1
11,G8A G86A,0.09
12,U81A A141G,1.85
13,U12C U130A,1.49
14,U46A G75A,0.9
15,G27U U39C,0.63
16,G53C A136G,0.36
17,U104C U115C,1.92
18,A124G C145A,1.22
19,U45C G80A,2.16
20,U1C U85C,0.2
21,A43C A94G,0.66
22,G139A A140G,0.19
23,C19U G40A,1
